Experimental data published in patent US7098309.

Experiments:
[1] = target: improved recombinant hepatitis B surface antigen (rHBsAg) refolded in GSH/GSSG redox buffer, with formalin, formulated on alum (Bulk Alum Product) (hepatitis B virus) (UniProt P03141); experiment: AUZYME sandwich ELISA on alum-formulated rHBsAg; row label names the rHBsAg preparation (group C, with 1.0 mM GSH and 0.2 mM GSSG)
[2] = target: recombinant hepatitis B surface antigen (rHBsAg) processed without redox buffer, with formalin, formulated on alum (Bulk Alum Product) (hepatitis B virus) (UniProt P03141); experiment: AUZYME sandwich ELISA on alum-formulated rHBsAg; row label names the rHBsAg preparation (group A, no redox buffer)
[3] = target: improved recombinant hepatitis B surface antigen (rHBsAg) refolded in GSH/GSSG redox buffer, formalin omitted, formulated on alum (hepatitis B virus) (UniProt P03141); experiment: AUZYME sandwich ELISA; row label names the rHBsAg batch (redox buffer, no formalin, stainless steel tank)
[4] = target: improved recombinant hepatitis B surface antigen (rHBsAg) refolded in GSH/GSSG redox buffer, formalin omitted, formulated on alum (hepatitis B virus) (UniProt P03141); experiment: AUZYME sandwich ELISA; row label names the rHBsAg batch (redox buffer, no formalin, glass tank)
[5] = target: plasma-derived Dane particles (hepatitis B virus); experiment: AUZYME sandwich ELISA on plasma-derived Dane particles
[6] = target: recombinant hepatitis B surface antigen (rHBsAg) processed without redox buffer, with formalin, formulated on alum (Bulk Alum Product) (hepatitis B virus) (UniProt P03141); experiment: AUZYME sandwich ELISA; row label names the rHBsAg batch (no redox buffer, with formalin, glass tank)
[7] = target: recombinant hepatitis B surface antigen (rHBsAg) processed without redox buffer, with formalin, formulated on alum (Bulk Alum Product) (hepatitis B virus) (UniProt P03141); experiment: AUZYME sandwich ELISA on alum-formulated rHBsAg; row label names the rHBsAg preparation (group B, no redox buffer)
[8] = target: improved recombinant hepatitis B surface antigen (rHBsAg) refolded in GSH/GSSG redox buffer, with formalin, formulated on alum (Bulk Alum Product) (hepatitis B virus) (UniProt P03141); experiment: AUZYME sandwich ELISA on alum-formulated rHBsAg; row label names the rHBsAg preparation (group B, with 1.0 mM GSH and 0.2 mM GSSG)
[9] = target: recombinant hepatitis B surface antigen (rHBsAg) processed without redox buffer, with formalin, formulated on alum (Bulk Alum Product) (hepatitis B virus) (UniProt P03141); experiment: AUZYME sandwich ELISA on alum-formulated rHBsAg; row label names the rHBsAg preparation (group C, no redox buffer)
[10] = target: improved recombinant hepatitis B surface antigen (rHBsAg) refolded in GSH/GSSG redox buffer, with formalin, formulated on alum (Bulk Alum Product) (hepatitis B virus) (UniProt P03141); experiment: AUZYME sandwich ELISA on alum-formulated rHBsAg; row label names the rHBsAg preparation (group A, with 1.0 mM GSH and 0.2 mM GSSG)
[11] = target: improved recombinant hepatitis B surface antigen (rHBsAg) refolded in GSH/GSSG redox buffer, with formalin, formulated on alum (Bulk Alum Product) (hepatitis B virus) (UniProt P03141); experiment: AUZYME sandwich ELISA; row label names the rHBsAg batch (redox buffer, with formalin, glass tank)

“AUZYME monoclonal enzyme immunoassay antibodies: mouse monoclonal antibodies to hepatitis B surface antigen coated on beads, and mouse monoclonal Anti-HBsAg peroxidase conjugate (antibody)” showed an IVRP (in vitro relative potency) (relative to reference rHBsAg = 1.0) [1] of 2.47, an IVRP (in vitro relative potency) (relative to reference rHBsAg = 1.0) [2] of 2.09 and an IVRP (in vitro relative potency) (relative to reference rHBsAg = 1.0) [3] of 4.3. For the same substance, the IVRP (in vitro relative potency) (relative to reference rHBsAg = 1.0) [4] was 4.62, the ELISA response (in vitro relative potency scale) (relative to reference rHBsAg = 1.0) [5] was 5 and the IVRP (in vitro relative potency) (relative to reference rHBsAg = 1.0) [6] was 2.51. For the same substance, the IVRP (in vitro relative potency) (relative to reference rHBsAg = 1.0) [7] was 1.69, the IVRP (in vitro relative potency) (relative to reference rHBsAg = 1.0) [8] was 2.7 and the IVRP (in vitro relative potency) (relative to reference rHBsAg = 1.0) [9] was 1.44. The IVRP (in vitro relative potency) (relative to reference rHBsAg = 1.0) [10] was 3.56 and the IVRP (in vitro relative potency) (relative to reference rHBsAg = 1.0) [11] was 4.32.
